Experiments:
[1] = target: T1, hCD3e&g-his, Human CD3 epsilon & CD3 gamma Heterodimer Protein with His Tag (Acro Biosystems, CDG-H52W5) (Human, UniProt P07766 23-126; P09693 23-116); assay: ELISA, plate coated with human CD3e&g-his at 1 µg/mL, anti-human IgG Fc-HRP [D]
T1 construct: Bought protein; also called human CD3E&G heterodimer protein; not shown: His Tag fused to C-terminus of CD3 epsilon chain
Protocol: (§1) ELISA assays were conducted as briefly described: CD3 proteins were coated onto ELISA plates at 1 μg/mL; testing antibodies OKT3 and PR006364 (A1-HCAb) were diluted from 2 μg/mL to 8 different concentrations by 3-fold serial dilution, or testing antibodies PR006370 (SP34) and PR010991 (3G11-HCAb) were diluted from 100 nM to 11 different concentrations by 2-fold serial dilution; secondary antibody (anti-human IgG Fc-HRP) was used to detect PR006364, PR006370 and PR010991, and secondary antibody (anti-mouse IgG Fc-HRP) was used to detect OKT3 binding signal. The absorption signal at 450 nm (OD450) was recorded by plate reader (Molecular Devices, SpectraMax), and the data were processed and non-linear curve fitting analyzed by GraphPad Prism 8.

[2] = target: T2, cynoCD3e&d-his, Cynomolgus CD3 epsilon & CD3 delta Heterodimer Protein (Acro Biosystems, CDD-C52W4) (Cynomolgus, UniProt Q95LI5 22-117; Q95LI8 22-105); assay: ELISA, plate coated with cyno CD3e&d-his at 1 µg/mL, anti-human IgG Fc-HRP [C]
T2 construct: Bought protein; also called cynomolgus CD3E&D heterodimer protein; not shown: His Tag fused to C-terminus of CD3 epsilon chain; Flag Tag fused to C-terminus of CD3 delta chain
T2 sequence (Q95LI5 22-117, stated change not applied, chain 1 of 2): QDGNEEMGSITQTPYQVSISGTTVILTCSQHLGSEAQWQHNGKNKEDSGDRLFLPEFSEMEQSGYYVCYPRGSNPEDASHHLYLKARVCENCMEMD
T2 sequence (Q95LI8 22-105, stated change not applied, chain 2 of 2): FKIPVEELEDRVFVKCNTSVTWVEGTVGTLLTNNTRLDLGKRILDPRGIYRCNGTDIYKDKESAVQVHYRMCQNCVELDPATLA
Protocol: as §1

[3] = target: T3, hCD3e&d-his, Human CD3 epsilon & CD3 delta Heterodimer Protein with His Tag (Acro Biosystems, CDD-H52W1) (Human, UniProt P07766 23-126; P04234 22-105); assay: ELISA, plate coated with human CD3e&d-his at 1 µg/mL, anti-human IgG Fc-HRP [B]
T3 construct: Bought protein; also called human CD3E&D heterodimer protein; not shown: His Tag fused to C-terminus of CD3 epsilon chain
Protocol: as §1

[4] = target: T4, hCD3e-his, Human CD3 epsilon Protein with His Tag (Acro Biosystems, CDE-H5223) (Human, UniProt P07766 23-126); assay: ELISA, plate coated with human CD3e-his at 1 µg/mL, anti-human IgG Fc-HRP [E]
T4 construct: Bought protein; also called human CD3E monomeric protein; monomeric CD3E; not shown: His Tag
Protocol: as §1

human CD3e&d-llamaFc = target: T5, human CD3e&d-llamaFc; assay: ELISA, plate coated with human CD3e&d-llamaFc at 1 µg/mL, anti-human IgG Fc-HRP [A]
T5 construct: also called hCD3e&d-llamaFc; Human CD3 epsilon & CD3 delta Heterodimer Protein fused with Llama Fc (Acro Biosystems, CDD-H5258); not shown: The llama Fc, any linker to it, and which chain or chains carry it
T5 epsilon: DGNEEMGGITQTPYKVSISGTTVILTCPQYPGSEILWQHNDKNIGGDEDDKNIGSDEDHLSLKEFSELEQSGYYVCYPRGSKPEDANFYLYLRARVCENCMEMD
T5 delta: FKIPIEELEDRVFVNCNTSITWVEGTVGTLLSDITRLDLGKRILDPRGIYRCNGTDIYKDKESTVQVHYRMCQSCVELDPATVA
Protocol: as §1

[5] = target: T6, Biotinylated human CD3e&d protein (Acro Biosystems, CDD-H82W6) (human, UniProt P07766 23-126; P04234 22-105, biotinylated protein; chain and site not stated); assay: BLI (Octet RED96e), biotinylated antigen on SA biosensors, antibody 0.375-12 nM
T6 construct: Bought protein loaded on SA Octet biosensors; also called human CD3 protein
Protocol: (§2) To determine the binding affinities of anti-CD3 antibodies to human or cynomolgus monkey CD3e&d heterodimer proteins, bio-layer interferometry (BLI) assays were carried out by using Octet® RED96e.
(§3) Biotinylated human CD3e&d protein (Acro Biosystems, CDD-H82W6) or biotinylated cynomolgus CD3e&d protein (Acro Biosystems, CDD-C82W6) was first loaded onto the surface of SA Octet biosensors (Sartorius, 18-5019) to reach capture levels between 0.5-0.8 nm. The loaded biosensors were then dipped in wells containing 2-fold serial dilutions of testing antibodies to detect association signals, followed by dissociation steps in wells containing kinetic buffer. The association phase was 180 seconds, and the dissociation phase was 900 seconds. The sensorgrams were recorded, and the reference signals were subtracted before curve fitting using ForteBio Data Analysis 11.0 software. Association rates (kon) and dissociation rates (koff) were calculated using a simple one-to-one Langmuir binding model. The equilibrium dissociation constant (KD) was calculated as the ratio of koff/kon.

[6] = target: T7, CD3/TCR complex on Jurkat cells (ATCC, TIB-152) and Jurkat-NFAT-Luc reporter cells (human, UniProt P07766 23-207; P04234 22-171; P09693 23-182; P20963 22-164); assay: FACS on Jurkat cells, purified antibody [A]
T7 construct: whole, on cells; also called CD3/TCR-positive Jurkat cells; TCR/CD3 complex
T7 sequence (P09693 23-182, chain 3 of 2): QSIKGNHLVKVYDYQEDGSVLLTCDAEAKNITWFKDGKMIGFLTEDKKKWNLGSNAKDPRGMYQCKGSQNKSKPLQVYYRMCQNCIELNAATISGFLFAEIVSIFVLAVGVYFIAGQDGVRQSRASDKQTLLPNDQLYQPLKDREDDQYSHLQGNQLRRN
T7 sequence (P20963 22-164, chain 4 of 2): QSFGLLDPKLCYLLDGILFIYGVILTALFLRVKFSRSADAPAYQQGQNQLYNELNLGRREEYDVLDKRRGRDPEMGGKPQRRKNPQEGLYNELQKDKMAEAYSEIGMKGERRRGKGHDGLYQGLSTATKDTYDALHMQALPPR
Protocol: The binding activities to target cells for the supernatants A1-monoFc (PR005860) and E2-monoFc (PR005861) were evaluated by FACS. The supernatants of the recombinant antibodies (i.e. A1-monoFc, E2-monoFc) were diluted from bulk solution to 8 different concentrations by 3-fold serial dilution. […] The cells were washed twice with staining buffer and subjected to flow cytometry. The data were processed by FlowJo v10 (FlowJo, LLC) and non-linear curve fitting analyzed by GraphPad Prism 8.
The binding activities to Jurkat and J.RT3-T3.5 cells for purified A1-HCAb (PR006364), E2-HCAb (PR006365) were determined by FACS, following the method described in Example 2. As shown in (A) and (B of FIG. 8, PR006364 and PR006365 can bind to Jurkat cells but not to J.RT3-T3.5 cells, which is consistent with the result in FIG. 1.

[7] = target: human CD3E&D heterodimer protein (construct not specified; FIG. 9A and FIG. 12) (human, UniProt P07766 23-126; P04234 22-105); assay: ELISA on coated human CD3e&d heterodimer protein (construct not named on the sheet)
[8] = target: T8, Biotinylated cynomolgus CD3e&d protein (Acro Biosystems, CDD-C82W6) (cynomolgus, UniProt Q95LI5 22-117; Q95LI8 22-105, biotinylated protein; chain and site not stated); assay: BLI (Octet RED96e), biotinylated antigen on SA biosensors
T8 construct: Bought protein loaded on SA Octet biosensors
T8 sequence (Q95LI5 22-117, chain 1 of 2): as the sequence (Q95LI5 22-117, stated change not applied, chain 1 of 2) above
T8 sequence (Q95LI8 22-105, chain 2 of 2): as the sequence (Q95LI8 22-105, stated change not applied, chain 2 of 2) above
Protocol: as §2, §3

[9] = target: T9, CD3 on T cells in cynomolgus monkey PBMCs (cynomolgus monkey, UniProt Q95LI5 22-198; Q95LI8 22-171; Q95LI7 23-181); assay: FACS on cynomolgus monkey PBMCs, 2-fold serial dilution from 200 nM [A]
T9 construct: whole, on cells
T9 sequence (Q95LI5 22-198, chain 1 of 3): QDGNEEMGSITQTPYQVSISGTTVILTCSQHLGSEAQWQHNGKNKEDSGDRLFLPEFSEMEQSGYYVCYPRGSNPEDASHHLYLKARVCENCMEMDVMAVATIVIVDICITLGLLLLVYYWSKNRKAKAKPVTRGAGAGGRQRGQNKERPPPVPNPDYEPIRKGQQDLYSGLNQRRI
T9 sequence (Q95LI8 22-171, chain 2 of 3): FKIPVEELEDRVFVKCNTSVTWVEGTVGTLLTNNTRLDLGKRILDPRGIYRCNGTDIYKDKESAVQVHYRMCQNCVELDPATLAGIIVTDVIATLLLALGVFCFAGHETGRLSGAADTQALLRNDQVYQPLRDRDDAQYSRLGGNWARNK
T9 sequence (Q95LI7 23-181, chain 3 of 3): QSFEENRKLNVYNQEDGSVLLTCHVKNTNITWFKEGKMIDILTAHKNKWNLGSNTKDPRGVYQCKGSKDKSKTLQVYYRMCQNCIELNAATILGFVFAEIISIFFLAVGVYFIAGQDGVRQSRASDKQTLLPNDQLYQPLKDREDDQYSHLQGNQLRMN
Protocol: (§4) The cross reactivity to cynomolgus monkey for 3G11-HCAb (PR010991) and derived B7H4xCD3 PR008551 was evaluated by assays of binding activity to cynomolgus monkey PBMCs by FACS method and T cell mediated cytotoxicity with cynomolgus monkey PBMCs by RTCA method. In this example, Anti-CD3/TCR HCAb PR006361 derived from patent WO2016180982A1 and its derived B7H4xCD3 PR006001 were used as control antibodies. These antibodies are generated as described in Example 8.
(§5) Cynomolgus monkey PBMCs were isolated from 10 mL fresh cynomolgus monkey blood using Ficoll Paque Plus (Cytiva 17-1440-02) following the vendor's instructions. The recombinant antibodies were diluted from 200 nM to 11 different concentrations by 2-fold serial dilution. The diluted samples were incubated with cynomolgus monkey PBMCs for 1 hour, and then the secondary antibody (Alexa Fluor®488 AffinityPure Goat Anti-Human IgG (Fcγ Fragment Specific), Jackson ImmunoResearch, 109-545-098) was added and incubated for 1 hour. The cells were washed twice with staining buffer and subjected to flow cytometry. The data were processed by FlowJo v10 (FlowJo, LLC) and non-linear curve fitting analyzed by GraphPad Prism 8.

[10] = target: T9, CD3 on T cells in cynomolgus monkey …; assay: FACS on cynomolgus monkey PBMCs, 2-fold serial dilution from 200 nM [B]
Protocol: as §4, §5

[11] = target: T10, hCD3d-his, Human CD3 delta Protein with His Tag (Acro Biosystems, CDD-H5224) (Human, UniProt P04234 22-105); assay: ELISA, plate coated with human CD3d-his at 1 µg/mL, anti-human IgG Fc-HRP [F]
T10 construct: Bought protein; also called monomeric CD3D; not shown: His Tag
Protocol: as §1

[12] = target: T6, Biotinylated human CD3e&d protein (Acro …); assay: BLI (Octet RED96e), biotinylated antigen on SA biosensors, antibody 1.5-24 nM
Protocol: as §2, §3

[13] = target: T8, Biotinylated cynomolgus CD3e&d protein …; assay: as above
Protocol: as §2, §3

B1: PR006370, anti-CD3 SP34 chimeric hIgG1(AAG) (antibody, V domains shown)
VH: EVQLVESGGGLVQPKGSLKLSCAASGFTFNTYAMNWVRQAPGKGLEWVARIRSKYNNYATYYADSVKDRFTISRDDSQSILYLQMNNLKTEDTAMYYCVRHGNFGNSYVSWFAYWGQGTLVTVSA
VL: QAVVTQESALTTSPGETVTLTCRSSTGAVTTSNYANWVQEKPDHLFTGLIGGTNKRAPGVPARFSGSLIGDKAALTITGAQTEDEAIYFCALWYSNLWVFGGGTKLTVLG
notes: Mouse/human chimeric antibody, human IgG1 Fc-silent variant (L234A, L235A, P329G)
Question: How did the “EC50 (read off the curve)” value [1] turn out when B1 was run?
Answer: ~0.8 nM

Question: What about the “EC50 (read off the curve)” value [2] of the same binder?
Answer: ~0.7 nM

Question: And the “EC50 (read off the curve)” value [3]?
Answer: ~0.6 nM

Question: And the “EC50 (read off the curve)” value [4]?
Answer: ~0.8 nM

B2: PR006364, anti-CD3 A1-HCAb hIgG1(C220S, AAG) (antibody, V domains shown)
VH: RIRLVESGGGLVQAGGSLRLSCAASGRTSGIPAMAWFRQAPGKEREFVAMAWSGGGTIYGDSVKNRFTISRDNTQNTIFLQMNSLKPEDTALYYCAAGRSTSNRADQYNYWGQGTQVTVSS
notes: Heavy-chain-only antibody, VHH fused to conventional human IgG1 Fc (C220S, L234A, L235A, P329G)
Question: With B2 as the binder, how does the “EC50 (read off the curve)” value (human CD3e&d-llamaFc) read?
Answer: ~0.03 µg/mL

Question: And the Kd [5]?
Answer: 0.0342 nM

Question: What about the koff [5] of the same binder?
Answer: 2.49e-05 s⁻¹

Question: And the kon [5]?
Answer: 727000 M⁻¹ s⁻¹

Question: What about the “EC50 (read off the curve)” value [6] of the same binder?
Answer: ~2 nM

Question: And the “EC50 (read off the curve)” value [7]?
Answer: ~0.7 nM

B3: PR006361, anti-CD3/TCR HCAb hIgG1(AAG) from WO2016180982A1 (antibody, V domains shown)
VH: EVQLVESGGGPVQAGGSLRLSCAASGRTYRGYSMGWFRQAPGKEREFVAAIVWSGGNTYYEDSVKGRFTISRDNAKNTMYLQMTSLKPEDSATYYCAAKIRPYIFKIAGQYDYWGQGTQVTVSS
notes: Control heavy-chain-only antibody from prior art; C220S and AAG mutations
Question: Which results are given for B3?
Answer: binding result [8]: no binding (tested: 12.5-200 nM); binding result [9]: no binding (tested: 200 nM)

B4: PR006001, anti-B7H4xCD3 VH(PR006361)-Fc-scFv(PR003366), hIgG1(dCH1, KiH, LALA) (bispecific antibody)
chain 1: not shown
chain 2: EIVMTQSPASLSVSPGERATLSCRASQSVSSNLAWYQQKPGQAPRLLIYGASTRATGIPARVSGGGSGTEFTLTISSLQSEDFAVYYCQQYKNWPFTFGPGTKLEIKGGGGSGGGGSGGGGSGGGGSQVQLVQSGAEVKKPGSSMRVSCKASEDTFSSYAISWVRQAPGQGLEWMGGTAPIFGTTNYAQKFQGRVTITADKSTSTAYMELSSLRSEDTAVYYCARGGPYFDYWGQGTLVTVSSASEPKSSDKTHTCPPCPAPEAAGGPSVFLFPPKPKDTLMISRTPEVTCVVVDVSHEDPEVKFNWYVDGVEVHNAKTKPREEQYNSTYRVVSVLTVLHQDWLNGKEYKCKVSNKALPAPIEKTISKAKGQPREPQVCTLPPSREEMTKNQVSLSCAVKGFYPSDIAVEWESNGQPENNYKTTPPVLDSDGSFFLVSKLTVDKSRWQQGNVFSCSVMHEALHNHYTQKSLSLSPGK
notes: Control bispecific; anti-CD3 VH-Fc chain and anti-B7H4 scFv-Fc chain
Question: Does B4 bind [10]?
Answer: no binding (tested: 200 nM)

B5: PR006365, anti-CD3 E2-HCAb hIgG1(C220S, AAG) (antibody, V domains shown)
VH: EVQLVESGGGLVQAGGSLRLSCAASGRTNGIPAMAWFRQAPGKEREFVAMAWSGGGTIYGDSVKNRFTISRNNAQNTISLQMSSLRPEDTALYFCAAGRTTSNKADHYNYWGQGTQVTVSS
notes: Heavy-chain-only antibody, human IgG1 Fc (C220S, L234A, L235A, P329G)
Question: Which “EC50 (read off the curve)” value [6] does the source give for B5 here?
Answer: ~9 nM

B6: PR010991, anti-CD3 3G11-HCAb hIgG1(C220S, AAA) (antibody, V domains shown)
VH: RVHLAESGGGLVQAGGSLRLSCAASGSRLNDNAMAWFRQAPGKEREFVGSIFWTGGNTYYADAVKGRLTISRDNAKNALYLQMNSLKPEDTAVYYCAASRVVWYYCSGYGCSRAGDYVYWGQGTQVTVSS
notes: Heavy-chain-only antibody, human IgG1 Fc (C220S, L234A, L235A, G237A)
Question: Does B6 bind [1]?
Answer: no binding (tested: 100 nM)

Question: What about the “EC50 (read off the curve)” value [2] of the same binder?
Answer: ~2 nM

Question: Does B6 bind [11]?
Answer: no binding (tested: 100 nM)

Question: And the “EC50 (read off the curve)” value [3]?
Answer: ~0.9 nM

Question: Does B6 bind [4]?
Answer: no binding (tested: 100 nM)

Question: And the Kd [12]?
Answer: < 1 pM

Question: What about the koff [12] of the same binder?
Answer: < 1e-07 s⁻¹

Question: And the kon [12]?
Answer: 906000 M⁻¹ s⁻¹

Question: And the Kd [13]?
Answer: < 1 pM

Question: And the koff [13]?
Answer: < 1e-07 s⁻¹

Question: What about the kon [13] of the same binder?
Answer: 708000 M⁻¹ s⁻¹

Reference: patent publication US20260125468A1 (NONA BIOSCIENCES SUZHOU, published 2026)
